Data reported in paper PMC9173642 (PLoS ONE, 2022).
One block for each binder: values may come before it.

B2: FLrArc-7A, full-length rat Arc with residues 113-119 mutated to Ala (natural protein, UniProt Q63053 1-396, looked up)
chain: MELDHMTTGGLHAYPAPRGGPAAKPNVILQIGKCRAEMLEHVRRTHRHLLTEVSKQVERELKGLHRSVGKLENNLDGYVPTGDSQRWKKSIKACLCRCQETIANLERWVKREAAAAAAAFYRLERWADRLESMGGKYPVGSEPARHTVSVGVGGPEPYCQEADGYDYTVSPYAITPPPAAGELPEQESVGAQQYQSWVPGEDGQPSPGVDTQIFEDPREFLSHLEEYLRQVGGSEEYWLSQIQNHMNGPAKKWWEFKQGSVKNWVEFKKEFLQYSEGTLSREAIQRELDLPQKQGEPLDQFLWRKRDLYQTLYVDAEEEEIIQYVVGTLQPKFKRFLRHPLPKTLEQLIQRGMEVQDGLEQAAEPSVTPLPTEDETEALTPALTSESVASDRTQPE
notes: Expressed from pHMGWA as His6-MBP fusion; Dimer by SAXS; also called poly-Ala rArc mutant; FLArc-7A; source: E. coli BL21(DE3)-RIPL, purified (details in S1 Protocol)

What was measured:
[1] = molecular target: T1, human Arc C-terminal domain (hArc-CTD) (human, UniProt Q7LC44); test: SEC-SAXS; hArc-CTD alone and with Nb, BM29 beamline (ESRF), HPLC mode; conditions: both partners purified
T1 construct: His tag with a linker holding a TEV site; kept in the pull-down; not shown: His6, N-terminal, kept

[2] = molecular target: the molecule itself; test: SEC-SAXS; FLrArc-7A alone and with Nb, SWING beamline, HPLC mode; 20 mM HEPES, 150 mM NaCl, 0.5 mM TCEP, pH 7.5 (rArc+H11 in 20 mM Tris, 150 mM NaCl, pH 7.4)
[3] = molecular target: B2; test: ITC; 2 mM Stg peptide injected into 198 μM FLrArc-7A; 20 mM Tris-HCl pH 7.4, 150 mM NaCl; 1:1 binding model; conditions: both partners purified
[4] = molecular target: rat Arc C-terminal domain as found in the crystals grown from FLrArc-7A (rArc-CTD) (rat, UniProt Q63053)
[5] = molecular target: the molecule itself; test: SEC-SAXS; MBP-2rNT alone, SWING beamline, HPLC mode
[6] = molecular target: the molecule itself; test: SEC; analytical SEC; 2 nmol FLhArc (capsid-containing) with 1.5-fold molar excess of Nb; Superdex 200 Increase 10/300 GL; PBS; fractions on SDS-PAGE
[7] = molecular target: FLrArc-7A, full-length rat Arc with residues 113-119 mutated to Ala (rat, UniProt Q63053, 113-119 MHVWREV to poly-Ala)

stoichiometry N [1]: 1
B1: NbArc-B12 (VHH)
VHH: EVQLLESGGGLVQAGGSLRLSCVASRGPFTTVTMGWYRQTPGKQRESVAHITSDGRANYADSVKGRFTISKDNATNTVYLQMNNLKREDTAVYYCNTIVWPRGPWGQGTQVTVSS
notes: From NanoTag Technologies, His6-TEV-Nb in pNT1433; also called sdAb B12; source: E. coli BL21(DE3), purified (NiNTA, TEV proteolysis, SEC); not shown: His6, N-terminal, cleaved

Binder: B2
stoichiometry N [2]: 2

Kd [3]: 34.9 µM | dH [3]: -9.2 kcal/mol | stoichiometry N [3]: 1.09
B3: stargazin (Stg) peptide (peptide)
peptide: Ac-RIPSYRYR-NH2
notes: peptide from the cytosolic tail of stargazin (Stg), auxiliary subunit of AMPA receptors

binding result [4]: binds
B4: C11 [NbArc-C11] (VHH)
VHH: EVQLVESGGGLVQAGGSLRLSCAASGRTSGALNVAWYRQATGKEREYVARLWWNDGTTYYSDSVKGRFTISSDNAKKIVYLQMNRLKPDDTAIYYCAVRTPSSQTLYWGQGTQVTVSS

stoichiometry N [1]: 1
B5: NbArc-C11 (VHH)
VHH: EVQLVESGGGLVQAGGSLRLSCAASGRTSGALNVAWYRQATGKEREYVARLWWNDGTTYYSDSVKGRFTISSDNAKKIVYLQMNRLKPDDTAIYYCAVRTPSSQTLYWGQGTQVTVSS
notes: From NanoTag Technologies, His6-TEV-Nb in pNT1433; also called Nb C11; sdAb C11; source: E. coli BL21(DE3), purified (NiNTA, TEV proteolysis, SEC); not shown: His6, N-terminal, cleaved

stoichiometry N [1]: 1
B6: NbArc-D4 (VHH)
VHH: EVQLVESGGGLVQAGGSLRLSCVASRGPFTTVTMGWYRQTPGRGRELVATINGGGGTRYADSVKGRFTISTDNAKNTVSLQMNSLKPEDTAVYYCNNDGYEWGVKKTYWGQGTQVTVSS
notes: From NanoTag Technologies, His6-TEV-Nb in pNT1433; also called sdAb D4; source: E. coli BL21(DE3), purified (NiNTA, TEV proteolysis, SEC); not shown: His6, N-terminal, cleaved

B7: MBP-2rNT, N-terminal domain of rat Arc (residues 24-137) with the poly-Ala mutation, fused to His6-MBP (domain or fragment, UniProt Q63053 24-137, looked up)
chain: KPNVILQIGKCRAEMLEHVRRTHRHLLTEVSKQVERELKGLHRSVGKLENNLDGYVPTGDSQRWKKSIKACLCRCQETIANLERWVKREAAAAAAAFYRLERWADRLESMGGKY
notes: Insoluble without the MBP fusion partner; dimer by SAXS; also called NTD; rArc-NTD; source: E. coli BL21(DE3)-RIPL, purified (details in S1 Protocol); not shown: His6, N-terminal, kept; MBP, N-terminal, kept
stoichiometry N [5]: 2

B8: full-length human Arc (FLhArc), capsid-containing preparation (natural protein, UniProt Q7LC44 1-396, looked up)
chain: MELDHRTSGGLHAYPGPRGGQVAKPNVILQIGKCRAEMLEHVRRTHRHLLAEVSKQVERELKGLHRSVGKLESNLDGYVPTSDSQRWKKSIKACLCRCQETIANLERWVKREMHVWREVFYRLERWADRLESTGGKYPVGSESARHTVSVGVGGPESYCHEADGYDYTVSPYAITPPPAAGELPGQEPAEAQQYQPWVPGEDGQPSPGVDTQIFEDPREFLSHLEEYLRQVGGSEEYWLSQIQNHMNGPAKKWWEFKQGSVKNWVEFKKEFLQYSEGTLSREAIQRELDLPQKQGEPLDQFLWRKRDLYQTLYVDADEEEIIQYVVGTLQPKLKRFLRHPLPKTLEQLIQRGMEVQDDLEQAAEPAGPHLPVEDEAETLTPAPNSESVASDRTQPE
notes: Activity-regulated cytoskeleton-associated protein (Arc), human, full length, without any mutations; High-molecular-weight forms and capsids with nucleic acid content (260/280 ratio >1); also called capsid hArc; wild-type full length hArc; source: E. coli BL21 CodonPlus, purified (NiNTA, TEV cleavage, Talon)
binding result [6]: binds

stoichiometry N [1]: 1
B9: NbArc-B5 (VHH)
VHH: EVQLQESGGGLVEAGGSLRLSCAASGHTSSTVNMAWYRQAPGKEREWVARVFWTDGATYYSDSVKGRFTISRDNTKQRVNLQMNNLKPEDTAIYYCALRAPSSQRLYWGQGTQVTVSS
notes: From NanoTag Technologies, His6-TEV-Nb in pNT1433; also called sdAb B5; source: E. coli BL21(DE3), purified (NiNTA, TEV proteolysis, SEC); not shown: His6, N-terminal, cleaved

binding result [7]: binds
B10: E5 [NbArc-E5] (VHH)
VHH: EVQLQESGGGLVQAGGSLRLSCAASGSIFSGNAMGWYRQAPGKQREVVAVISAGNSSNYVDSVKGRFTISRDNAKNTVYLQMNSLKPEDTAVYYCNVVKRGPQWGMEWGKGTLVTVSS

stoichiometry N [1]: 1
B11: NbArc-E5 (VHH)
VHH: EVQLQESGGGLVQAGGSLRLSCAASGSIFSGNAMGWYRQAPGKQREVVAVISAGNSSNYVDSVKGRFTISRDNAKNTVYLQMNSLKPEDTAVYYCNVVKRGPQWGMEWGKGTLVTVSS
notes: From NanoTag Technologies, His6-TEV-Nb in pNT1433; also called Nb E5; sdAb E5; source: E. coli BL21(DE3), purified (NiNTA, TEV proteolysis, SEC); not shown: His6, N-terminal, cleaved

stoichiometry N [1]: 1
B12: NbArc-H11 (VHH)
VHH: EVQLLESGGGLVQAGDSLRLSCAASGRTFSAYAMGWFRQAPGKEREFVAAISWSGNSTYYADSVKGRFTISRDNAKNTVYLQMNSLKPEDTAIYYCAARKPMYRVDISKGQNYDYWGQGTQVTVSS
notes: From NanoTag Technologies, His6-TEV-Nb in pNT1433; long CDR3 with a P-x-Y motif (Pro103, Tyr105); also called Nb H11; sdAb H11; source: E. coli BL21(DE3), purified (NiNTA, TEV proteolysis, SEC); not shown: His6, N-terminal, cleaved
